Assay results from US7067277B1, “Chimeric G proteins and uses thereof” (H. Lundbeck A/S, priority 1999, dated 2006).
Positions count from the first letter of the chain named.

What was measured:
Assay in all cases: Calcium mobilization (FLIPR, Fluo-3) in transfected COS-7 cells
Assay type in all cases: cell-based
h 5HT6 = h 5HT6 (Homo sapiens, UniProt P50406); conditions: h 5HT6 + chimera in COS-7; agonist 5HT, max 100 μM
Protocol: (§1) COS-7 cells were cultured in 225 cm^2 flasks in Dulbecco's Modified Eagle Medium (DMEM) with supplements (10% bovine calf serum, 4 mM glutamine, 100 units/ml penicillin and 100 μg/ml streptomycin) at 37° C., 5% CO2. Stock plates of COS-7 cells were trypsinized and split 1:6 every 3–4 days.
(§2) GPCR and chimeric G protein cDNAs were transiently transfected into COS-7 cells in 150 cm^2 flasks by the DEAE-dextran method (Cullen, 1987), using a total of 20 μg of DNA/˜7×10^6 cells. For evaluating the function of a single chimeric G protein, the standard cDNA transfection ratio was 1:1 (10 μg GPCR cDNA and 10 μg chimeric G protein cDNA). For evaluating the function of a mixture of chimeric G proteins, the standard cDNA transfection ratio was 8:1:1 (16 μg GPCR cDNA, 2 μg Gαq/z cDNA, 2 μg Gαq/s cDNA).
(§3) Twenty four hours after transient transfection, COS-7 cells were seeded into 96-well black wall microtiter plates coated with poly-D-lysine for assay the following day. Just prior to assay, culture medium was aspirated and cells were dye-loaded with 4 μM Fluo-3/0.01% pluronic acid in assay buffer composed of Hank's Balanced Salt Solution (138 mM NaCl, 5 mM KCl, 1.3 mM CaCl2, 0.5 mM MgCl2, 0.4 mM MgSO4, 0.3 mM KH2PO4, 0.3 mM Na2HPO4, 5.6 mM glucose) plus 20 mM HEPES (pH 7.4), 0.1% BSA and 2.5 mM probenicid (100 μl/well) for 1 hour in 5% CO2 at 37° C. After excess dye was discarded, cells were washed in assay buffer and layered with a final volume equal to 100 μl/well. Basal fluorescence was monitored in a fluorometric imaging plate reader (FLIPR™, Molecular Devices) with an excitation wavelength of 488 nm and an emission range of 500 to 560 nm. Laser excitation energy was adjusted so that basal fluorescence readings were approximately 10,000 relative fluorescent units. Cells were stimulated with agonists diluted in assay buffer (50 μl), and relative fluorescent units were measured at defined intervals (exposure=0.4 sec) over a 3 min period at room temperature. Maximum change in fluorescence was calculated for each well. Concentration-response curves derived from the maximum change in fluorescence were analyzed by nonlinear regression (Hill equation).

h GALR3 = target: T1, h GALR3 (Homo sapiens, UniProt O60755); conditions: h GALR3 + chimera in COS-7; agonist GAL, max 10 μM
T1 sequence (O60755 1-368): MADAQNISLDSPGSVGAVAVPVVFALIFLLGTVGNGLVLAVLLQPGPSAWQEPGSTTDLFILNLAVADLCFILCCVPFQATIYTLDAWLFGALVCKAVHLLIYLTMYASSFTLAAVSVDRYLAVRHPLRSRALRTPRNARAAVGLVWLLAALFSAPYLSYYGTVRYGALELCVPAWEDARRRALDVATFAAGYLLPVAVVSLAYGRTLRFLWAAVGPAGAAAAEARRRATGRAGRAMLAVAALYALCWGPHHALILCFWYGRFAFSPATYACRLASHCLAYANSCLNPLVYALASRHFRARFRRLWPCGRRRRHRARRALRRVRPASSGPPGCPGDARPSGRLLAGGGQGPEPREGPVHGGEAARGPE
Protocol: as §1, §2, §3

h GLP-1 = h GLP-1 (Homo sapiens, UniProt P43220); conditions: h GLP-1 + chimera in COS-7; agonist GLP-1, max 10 μM
h GLP-1, sequence (P43220 24-463): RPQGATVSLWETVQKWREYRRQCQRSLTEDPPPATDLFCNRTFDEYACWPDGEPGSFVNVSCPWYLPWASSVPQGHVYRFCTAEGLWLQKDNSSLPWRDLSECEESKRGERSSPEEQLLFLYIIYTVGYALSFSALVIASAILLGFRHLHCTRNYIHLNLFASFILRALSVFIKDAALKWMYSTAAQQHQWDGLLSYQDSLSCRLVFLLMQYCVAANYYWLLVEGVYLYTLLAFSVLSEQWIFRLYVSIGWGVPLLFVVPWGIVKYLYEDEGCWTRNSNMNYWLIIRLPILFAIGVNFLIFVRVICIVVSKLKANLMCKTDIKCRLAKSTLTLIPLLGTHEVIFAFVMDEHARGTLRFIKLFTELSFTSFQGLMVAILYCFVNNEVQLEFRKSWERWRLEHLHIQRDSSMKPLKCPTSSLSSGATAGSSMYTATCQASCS
Protocol: as §1, §2, §3

h NPFF1 = target: T2, h NPFF1 (Homo sapiens, UniProt Q9GZQ6); conditions: h NPFF1 + chimera in COS-7; agonist NPFF, max 10 μM
T2 construct: expressed in transfected cells; host or cells: COS-7
T2 sequence (Q9GZQ6 whole entry): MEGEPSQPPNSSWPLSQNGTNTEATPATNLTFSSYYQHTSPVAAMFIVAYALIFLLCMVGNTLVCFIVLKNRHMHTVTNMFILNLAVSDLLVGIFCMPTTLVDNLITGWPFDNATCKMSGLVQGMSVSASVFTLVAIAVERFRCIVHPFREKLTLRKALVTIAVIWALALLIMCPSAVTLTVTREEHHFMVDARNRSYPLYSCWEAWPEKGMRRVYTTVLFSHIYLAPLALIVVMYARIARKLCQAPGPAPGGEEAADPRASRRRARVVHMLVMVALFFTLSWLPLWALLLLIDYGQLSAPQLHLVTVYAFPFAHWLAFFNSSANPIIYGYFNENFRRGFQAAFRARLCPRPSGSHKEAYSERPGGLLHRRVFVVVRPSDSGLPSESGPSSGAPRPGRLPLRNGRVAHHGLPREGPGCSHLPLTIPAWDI
Protocol: as §1, §2, §3

h Y2 = target: T3, h Y2 (Homo sapiens, UniProt P49146); conditions: h Y2 + chimera in COS-7; agonist NPY, max 10 μM
T3 construct: expressed in transfected cells; host or cells: COS-7
T3 sequence (P49146 1-381): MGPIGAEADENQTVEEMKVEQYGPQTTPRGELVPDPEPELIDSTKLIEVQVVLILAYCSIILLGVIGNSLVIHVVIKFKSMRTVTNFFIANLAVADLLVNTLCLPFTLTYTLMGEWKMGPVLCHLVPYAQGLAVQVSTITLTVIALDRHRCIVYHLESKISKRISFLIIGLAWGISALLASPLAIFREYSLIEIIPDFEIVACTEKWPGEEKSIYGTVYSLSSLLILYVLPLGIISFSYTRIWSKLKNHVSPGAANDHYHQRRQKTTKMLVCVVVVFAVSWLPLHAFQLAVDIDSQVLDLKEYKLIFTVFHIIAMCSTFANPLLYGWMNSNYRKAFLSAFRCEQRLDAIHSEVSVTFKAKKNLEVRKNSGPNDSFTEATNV
Protocol: as §1, §2, §3

h α1A adr = target: T4, h α1A adr (Homo sapiens, UniProt P35348); conditions: h α1A adr + chimera in COS-7; agonist NE, max 100 μM
T4 construct: expressed in transfected cells; host or cells: COS-7
T4 sequence (P35348 1-466): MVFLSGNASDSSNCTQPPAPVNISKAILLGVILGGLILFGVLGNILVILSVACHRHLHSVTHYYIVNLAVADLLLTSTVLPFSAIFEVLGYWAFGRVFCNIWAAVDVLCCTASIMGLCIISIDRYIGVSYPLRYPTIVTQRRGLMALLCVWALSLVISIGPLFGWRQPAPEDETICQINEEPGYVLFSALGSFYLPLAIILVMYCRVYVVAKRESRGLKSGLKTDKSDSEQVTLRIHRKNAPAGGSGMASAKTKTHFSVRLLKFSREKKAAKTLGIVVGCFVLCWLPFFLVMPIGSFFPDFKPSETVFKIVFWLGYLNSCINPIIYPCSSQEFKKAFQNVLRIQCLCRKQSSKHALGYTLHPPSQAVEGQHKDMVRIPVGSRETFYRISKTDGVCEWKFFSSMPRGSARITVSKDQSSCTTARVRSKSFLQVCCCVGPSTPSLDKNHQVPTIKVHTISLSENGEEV
Protocol: as §1, §2, §3

h 5HT6, sequence (P50406 whole entry): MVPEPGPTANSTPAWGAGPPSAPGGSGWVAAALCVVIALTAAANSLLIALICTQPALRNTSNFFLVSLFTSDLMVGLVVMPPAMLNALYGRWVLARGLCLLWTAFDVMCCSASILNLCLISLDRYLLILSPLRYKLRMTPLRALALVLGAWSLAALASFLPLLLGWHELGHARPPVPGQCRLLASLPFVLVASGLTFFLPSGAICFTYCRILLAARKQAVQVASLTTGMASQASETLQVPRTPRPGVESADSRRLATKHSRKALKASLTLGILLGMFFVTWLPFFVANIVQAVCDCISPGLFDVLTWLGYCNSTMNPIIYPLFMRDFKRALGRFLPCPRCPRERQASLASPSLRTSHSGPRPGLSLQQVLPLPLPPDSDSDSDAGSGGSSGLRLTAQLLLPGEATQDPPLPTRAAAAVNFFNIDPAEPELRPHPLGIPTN

B1: cGαq/z5: chimeric Gα subunit: C-terminal final 5 amino acids of C. elegans Gαq replaced with those of hGαz (SEQ ID NO: 1) (protein)
chain: MACCLSEEAREQKRINQEIEKQLQRDKRNARRELKLLLLGTGESGKSTFIKQMRIIHGQGYSEEDKRAHIRLVYQNVFMAIQSMIRAMDTLDIKFGNESEELQEKAAVVREVDFESVTSFEEPYVSYIKELWEDSGIQECYDRRREYQLTDSAKYYLSDLRRLAVPDYLPTEQDILRVRVPTTGIIEYPFDLEQIIFRMVDVGGQRSERRKWIHCFENVTSIMFLVALSEYDQVLVECDNENRMEESKALFRTIITYPWFTNSSVILFLNKKDLLEEKILYSHLADYFPEYDGPPRDPIAAREFILKMFVDLNPDADKIIYSHFTCATDTENIRFVFAAVKDTILQHNLKYIGLC
modifications: C. elegans
MAXIMAL SIGNAL (FLUORESCENCE UNITS) (h 5HT6): 1289 fluorescence units | MAXIMAL SIGNAL (FLUORESCENCE UNITS) (h GALR3): 1523 fluorescence units | MAXIMAL SIGNAL (FLUORESCENCE UNITS) (h GLP-1): 131 fluorescence units | MAXIMAL SIGNAL (FLUORESCENCE UNITS) (h NPFF1): 6593 fluorescence units | MAXIMAL SIGNAL (FLUORESCENCE UNITS) (h Y2): 7708 fluorescence units | MAXIMAL SIGNAL (FLUORESCENCE UNITS) (h α1A adr): 9816 fluorescence units

B2: cGαq/z9: C. elegans Gαq with Gαz portion of the C-terminal tail extended to 9 amino acids (SEQ ID NO: 2) (protein)
chain: B1 chain with H347N
modifications: C. elegans
MAXIMAL SIGNAL (FLUORESCENCE UNITS) (h 5HT6): 2287 fluorescence units | MAXIMAL SIGNAL (FLUORESCENCE UNITS) (h GALR3): 2050 fluorescence units | MAXIMAL SIGNAL (FLUORESCENCE UNITS) (h GLP-1): 135 fluorescence units | MAXIMAL SIGNAL (FLUORESCENCE UNITS) (h NPFF1): 2966 fluorescence units | MAXIMAL SIGNAL (FLUORESCENCE UNITS) (h Y2): 5387 fluorescence units | MAXIMAL SIGNAL (FLUORESCENCE UNITS) (h α1A adr): 6597 fluorescence units
